This assay deals with His-tagged human IL-18BP (human) (UniProt O95998). Nature of the assay: AlphaLISA of free IL-18BP.
Regarding “IL-18 variant SEQ ID NO: 4 (E6K, C38A, K53A, C68A, M86C) (from UniProt Q14116 37-193) (ligand)”, the Kd (commonly the free concentration of one partner at which half of the binding sites on the other are occupied at equilibrium, for simple one-to-one binding) was 0.0556 µM.

On to “IL-18 variant SEQ ID NO: 4 with 30 kDa PEG (E6K, C38A, K53A, C68A, M86C-30kPEG) (from UniProt Q14116 37-193) (ligand)”, for which the Kd amounted to 0.129 µM.

Turning to “IL-18 variant SEQ ID NO: 5 (E6K, V11I, C38A, K53A, T63A, C68A, C76A, M86C, C127A) (from UniProt Q14116 37-193) (ligand)”, the Kd was 0.181 µM.

With “IL-18 variant SEQ ID NO: 5 with 30 kDa PEG (E6K, V11I, C38A, K53A, T63A, C68A, C76A, C127A, M86C-30kPEG) (from UniProt Q14116 37-193) (ligand)”, the Kd was 0.0314 µM.

In turn, “IL-18 variant SEQ ID NO: 6 (E6K, V11I, C38A, K53A, T63A, C68A, C76A, D98C, C127A) (from UniProt Q14116 37-193) (ligand)” displayed a Kd of 0.631 µM.

“IL-18 variant SEQ ID NO: 6 with 30 kDa PEG (E6K, V11I, C38A, K53A, T63A, C68A, C76A, C127A, D98C-30kPEG) (from UniProt Q14116 37-193) (ligand)” showed a Kd of 0.0202 µM.

“IL-18 variant SEQ ID NO: 8 (E6K, V11I, C38A, K53A, T63A, C68A, C76A, T95C, C127A) (from UniProt Q14116 37-193) (ligand)” gave a Kd of 0.0611 µM.

In the case of “IL-18 variant SEQ ID NO: 9 (E6K, C38A, K53A, C68A, D98C) (from UniProt Q14116 37-193) (ligand)”, the Kd was 0.0827 µM.

In the case of “IL-18 variant SEQ ID NO: 9 with 30 kDa PEG (E6K, C38A, K53A, C68A, D98C-30kPEG) (from UniProt Q14116 37-193) (ligand)”, the Kd was determined as 0.151 µM.

In the case of “IL-18 variant SEQ ID NO: 11 (E6K, V11I, C38A, K53A, C76A, C127A) (from UniProt Q14116 37-193) (ligand)”, the Kd is 0.0368 µM.

The substance “IL-18 variant SEQ ID NO: 28 (E6K, C38A, K53A, T63A, C76A, C127A) (from UniProt Q14116 37-193) (ligand)” registered a Kd of 0.0444 µM.

“IL-18 variant SEQ ID NO: 28 with 30 kDa PEG (E6K, C38A, K53A, T63A, C76A, C127A, C68-30kPEG) (from UniProt Q14116 37-193) (ligand)” returned a dissociation constant Kd of 0.0407 µM.

The substance “IL-18 variant SEQ ID NO: 59 with 10 kDa PEG (E6K, C38A, K53A, C68-10kPEG) (from UniProt Q14116 37-193) (ligand)” returned a Kd of 0.0507 µM.

For the substance “IL-18 variant SEQ ID NO: 59 with 20 kDa PEG (E6K, C38A, K53A, C68-20kPEG) (from UniProt Q14116 37-193) (ligand)”, the Kd was 0.0485 µM.

Substance “IL-18 variant SEQ ID NO: 204 (V11I, C38A, K53A, C76A, C127A) (from UniProt Q14116 37-193) (ligand)” yielded a Kd of 0.00886 µM.

With “IL-18 variant SEQ ID NO: 205 (V11I, C38A, K53A, T63A, C76A, C127A) (from UniProt Q14116 37-193) (ligand)”, the Kd came to 0.00066 µM.

The substance “IL-18 variant SEQ ID NO: 206 (V11I, C38A, K53A, S55A, C76A, C127A) (from UniProt Q14116 37-193) (ligand)” gave a Kd of 0.00974 µM.

Substance “IL-18 variant SEQ ID NO: 207 (V11I, C38A, M51G, K53A, C76A, C127A) (from UniProt Q14116 37-193) (ligand)” returned a Kd of 0.373 µM.

Regarding “IL-18 variant SEQ ID NO: 208 (V11I, C38A, K53A, D54A, C76A, C127A) (from UniProt Q14116 37-193) (ligand)”, the Kd is 0.0258 µM.

Substance “IL-18 variant SEQ ID NO: 209 (F2A, V11I, C38A, K53A, C76A, C127A) (from UniProt Q14116 37-193) (ligand)” displayed a Kd of 0.0572 µM.

The record behind these values is patent US20250186594A1.
